The results in this text go back to publication PMC2798008.

The target of the series is T1, SaeRHis (Staphylococcus aureus USA300, UniProt Q2FIT4 1-228).
T1 sequence: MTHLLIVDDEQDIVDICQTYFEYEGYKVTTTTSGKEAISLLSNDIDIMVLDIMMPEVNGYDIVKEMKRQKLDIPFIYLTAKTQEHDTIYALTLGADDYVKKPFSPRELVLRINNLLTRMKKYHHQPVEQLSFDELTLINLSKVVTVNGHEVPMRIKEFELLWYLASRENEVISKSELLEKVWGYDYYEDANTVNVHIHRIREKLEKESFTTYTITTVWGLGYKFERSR
Put plainly: EMSA.

B1: sbi promoter (dsDNA)
DNA 1: CACTAGTTAATCTATTAGTTAACATTAGTTAATAATTAGTTAATTTCCAT
DNA 2: ATGGAAATTAACTAATTATTAACTAATGTTAACTAATAGATTAACTAGTG
Take B1: the binding result is recorded as “binds”.

B2: agrB promoter (dsDNA)
DNA 1: ATTTAACAGTTAAGTATTTATTTCCTACAGTTAGGCAATATAATGATAAA
DNA 2: TTTATCATTATATTGCCTAACTGTAGGAAATAAATACTTAACTGTTAAAT
Regarding B2, the binding result is listed as “no binding”.
